Target: T1, EsCas13d, nuclease-dead (Eubacterium siraeum, UniProt B0MS50, R295A;H300A;R849A;H854A)
T1 sequence: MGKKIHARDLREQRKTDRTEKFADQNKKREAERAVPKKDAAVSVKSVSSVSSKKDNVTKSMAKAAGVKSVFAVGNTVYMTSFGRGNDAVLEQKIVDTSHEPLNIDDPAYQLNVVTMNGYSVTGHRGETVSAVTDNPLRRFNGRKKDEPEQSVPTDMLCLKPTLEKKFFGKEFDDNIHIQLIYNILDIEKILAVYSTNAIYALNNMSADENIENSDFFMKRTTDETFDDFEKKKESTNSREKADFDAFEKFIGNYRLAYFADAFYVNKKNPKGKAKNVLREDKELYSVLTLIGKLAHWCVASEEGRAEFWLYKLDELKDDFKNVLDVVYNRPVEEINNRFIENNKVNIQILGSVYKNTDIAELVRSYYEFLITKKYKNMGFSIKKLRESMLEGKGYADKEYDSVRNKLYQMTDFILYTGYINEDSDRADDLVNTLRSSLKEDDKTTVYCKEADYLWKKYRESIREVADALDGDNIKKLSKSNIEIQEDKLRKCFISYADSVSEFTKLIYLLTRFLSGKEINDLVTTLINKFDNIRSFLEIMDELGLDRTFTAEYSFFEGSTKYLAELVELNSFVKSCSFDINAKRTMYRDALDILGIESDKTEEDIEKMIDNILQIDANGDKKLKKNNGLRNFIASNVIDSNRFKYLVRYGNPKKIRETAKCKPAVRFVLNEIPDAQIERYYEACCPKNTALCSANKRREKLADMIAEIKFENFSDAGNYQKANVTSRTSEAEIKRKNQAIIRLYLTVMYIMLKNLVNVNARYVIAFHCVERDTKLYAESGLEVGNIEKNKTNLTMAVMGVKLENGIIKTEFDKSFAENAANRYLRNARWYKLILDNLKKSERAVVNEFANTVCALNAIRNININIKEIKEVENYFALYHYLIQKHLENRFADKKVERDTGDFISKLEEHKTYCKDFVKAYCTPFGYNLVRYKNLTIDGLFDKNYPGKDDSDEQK
Experiment: crRNA (strand 1, pre-loaded); Mg2+; 40 mM Tris-HCl pH 7.5, 150 mM NaCl, 6 mM MgCl2, 1 mM DTT, 0.1% Tween-20, 0.2 mg/ml BSA; 25 C; 10 min per concentration, then washed
Settings: tags: His6-TwinStrep-SUMO cleaved; N-terminal SNAP kept (SNAP-Surface 488); label: 3' end held by stalled T7 RNA polymerase

| Binder | Kd [nM] |
| --- | --- |
| target 1 insA 3' of 12,insU 3' of 6 (mixed) RNA 1: CACCCGUGCAAAAAUGCAGGGGUCUAAAACUGAGCGGAUAACCUCUCUAUGG RNA 2: GGGAAUGGAUCCACAUCUACGAAUUCGUACCAUAGAGAGGAUUAUCCUGCUCACCGAGAUCGGAAGAGCACACGU | 64 ± 14 |
| target 1 G12U,U19A (mixed) RNA 1: CACCCGUGCAAAAAUGCAGGGGUCUAAAACUGAGCGGAUAACCUCUCUAUGG RNA 2: GGGAAUGGAUCCACAUCUACGAAUUCGUACCAAAGAGAGUUUAUCCGCUCACCGAGAUCGGAAGAGCACACGU | 52 ± 10 |
| target 1 A16C (mixed) RNA 1: CACCCGUGCAAAAAUGCAGGGGUCUAAAACUGAGCGGAUAACCUCUCUAUGG RNA 2: GGGAAUGGAUCCACAUCUACGAAUUCGUACCAUAGCGAGGUUAUCCGCUCACCGAGAUCGGAAGAGCACACGU | 31 ± 2.7 |
| target 1 C6A,G15A (mixed) RNA 1: CACCCGUGCAAAAAUGCAGGGGUCUAAAACUGAGCGGAUAACCUCUCUAUGG RNA 2: GGGAAUGGAUCCACAUCUACGAAUUCGUACCAUAGAAAGGUUAUCAGCUCACCGAGAUCGGAAGAGCACACGU | 11.9 ± 0.5 |
| target 1 insC 3' of 22,insA 3' of 21 (mixed) RNA 1: CACCCGUGCAAAAAUGCAGGGGUCUAAAACUGAGCGGAUAACCUCUCUAUGG RNA 2: GGGAAUGGAUCCACAUCUACGAAUUCGUACCCAAUAGAGAGGUUAUCCGCUCACCGAGAUCGGAAGAGCACACGU | 20.7 ± 2.3 |
| target 1 insG 3' of 22,insG 3' of 1 (mixed) RNA 1: CACCCGUGCAAAAAUGCAGGGGUCUAAAACUGAGCGGAUAACCUCUCUAUGG RNA 2: GGGAAUGGAUCCACAUCUACGAAUUCGUACGCAUAGAGAGGUUAUCCGCUCAGCCGAGAUCGGAAGAGCACACGU | 26.6 ± 2.1 |
| target 1 insU 3' of 22,insA 3' of 8 (mixed) RNA 1: CACCCGUGCAAAAAUGCAGGGGUCUAAAACUGAGCGGAUAACCUCUCUAUGG RNA 2: GGGAAUGGAUCCACAUCUACGAAUUCGUACUCAUAGAGAGGUUAUACCGCUCACCGAGAUCGGAAGAGCACACGU | 58 ± 5 |
| target 1 A1G,A16C (mixed) RNA 1: CACCCGUGCAAAAAUGCAGGGGUCUAAAACUGAGCGGAUAACCUCUCUAUGG RNA 2: GGGAAUGGAUCCACAUCUACGAAUUCGUACCAUAGCGAGGUUAUCCGCUCGCCGAGAUCGGAAGAGCACACGU | 36 ± 4 |
| target 1 U3A,A16G (mixed) RNA 1: CACCCGUGCAAAAAUGCAGGGGUCUAAAACUGAGCGGAUAACCUCUCUAUGG RNA 2: GGGAAUGGAUCCACAUCUACGAAUUCGUACCAUAGGGAGGUUAUCCGCACACCGAGAUCGGAAGAGCACACGU | 34.3 ± 2.9 |
| target 1 A1U,C22A (mixed) RNA 1: CACCCGUGCAAAAAUGCAGGGGUCUAAAACUGAGCGGAUAACCUCUCUAUGG RNA 2: GGGAAUGGAUCCACAUCUACGAAUUCGUAACAUAGAGAGGUUAUCCGCUCUCCGAGAUCGGAAGAGCACACGU | 12.1 ± 0.9 |
| target 1 A16U,C21U (mixed) RNA 1: CACCCGUGCAAAAAUGCAGGGGUCUAAAACUGAGCGGAUAACCUCUCUAUGG RNA 2: GGGAAUGGAUCCACAUCUACGAAUUCGUACUAUAGUGAGGUUAUCCGCUCACCGAGAUCGGAAGAGCACACGU | 11.7 ± 1.4 |
| target 1 insA 3' of 22,insG 3' of 18 (mixed) RNA 1: CACCCGUGCAAAAAUGCAGGGGUCUAAAACUGAGCGGAUAACCUCUCUAUGG RNA 2: GGGAAUGGAUCCACAUCUACGAAUUCGUACACAUAGGAGAGGUUAUCCGCUCACCGAGAUCGGAAGAGCACACGU | 59 ± 13 |
| target 1 A1U,A16C (mixed) RNA 1: CACCCGUGCAAAAAUGCAGGGGUCUAAAACUGAGCGGAUAACCUCUCUAUGG RNA 2: GGGAAUGGAUCCACAUCUACGAAUUCGUACCAUAGCGAGGUUAUCCGCUCUCCGAGAUCGGAAGAGCACACGU | 37 ± 4 |
| target 1 insA 3' of 22,insC 3' of 11 (mixed) RNA 1: CACCCGUGCAAAAAUGCAGGGGUCUAAAACUGAGCGGAUAACCUCUCUAUGG RNA 2: GGGAAUGGAUCCACAUCUACGAAUUCGUACACAUAGAGAGGUCUAUCCGCUCACCGAGAUCGGAAGAGCACACGU | 60 ± 19 |
| target 1 insG 3' of 22,insU 3' of 1 (mixed) RNA 1: CACCCGUGCAAAAAUGCAGGGGUCUAAAACUGAGCGGAUAACCUCUCUAUGG RNA 2: GGGAAUGGAUCCACAUCUACGAAUUCGUACGCAUAGAGAGGUUAUCCGCUCAUCCGAGAUCGGAAGAGCACACGU | 31 ± 4 |
| target 1 complement block 4-8 (mixed) RNA 1: CACCCGUGCAAAAAUGCAGGGGUCUAAAACUGAGCGGAUAACCUCUCUAUGG RNA 2: GGGAAUGGAUCCACAUCUACGAAUUCGUACCAUAGAGAGGUUAAGGCGUCACCGAGAUCGGAAGAGCACACGU | 9.57 ± 0.27 |
| target 1 insG 3' of 20,insU 3' of 2 (mixed) RNA 1: CACCCGUGCAAAAAUGCAGGGGUCUAAAACUGAGCGGAUAACCUCUCUAUGG RNA 2: GGGAAUGGAUCCACAUCUACGAAUUCGUACCAGUAGAGAGGUUAUCCGCUCUACCGAGAUCGGAAGAGCACACGU | ~60 |
| target 1 C22A (mixed) RNA 1: CACCCGUGCAAAAAUGCAGGGGUCUAAAACUGAGCGGAUAACCUCUCUAUGG RNA 2: GGGAAUGGAUCCACAUCUACGAAUUCGUAACAUAGAGAGGUUAUCCGCUCACCGAGAUCGGAAGAGCACACGU | 13.5 ± 0.7 |
| target 1 U3A,C4G (mixed) RNA 1: CACCCGUGCAAAAAUGCAGGGGUCUAAAACUGAGCGGAUAACCUCUCUAUGG RNA 2: GGGAAUGGAUCCACAUCUACGAAUUCGUACCAUAGAGAGGUUAUCCGGACACCGAGAUCGGAAGAGCACACGU | 5.74 ± 0.33 |
| target 1 insA 3' of 12,insA 3' of 10 (mixed) RNA 1: CACCCGUGCAAAAAUGCAGGGGUCUAAAACUGAGCGGAUAACCUCUCUAUGG RNA 2: GGGAAUGGAUCCACAUCUACGAAUUCGUACCAUAGAGAGGAUUAAUCCGCUCACCGAGAUCGGAAGAGCACACGU | 32 ± 7 |
| target 1 G17U,C21A (mixed) RNA 1: CACCCGUGCAAAAAUGCAGGGGUCUAAAACUGAGCGGAUAACCUCUCUAUGG RNA 2: GGGAAUGGAUCCACAUCUACGAAUUCGUACAAUAUAGAGGUUAUCCGCUCACCGAGAUCGGAAGAGCACACGU | 40 ± 7 |
| target 1 G12A,A14G (mixed) RNA 1: CACCCGUGCAAAAAUGCAGGGGUCUAAAACUGAGCGGAUAACCUCUCUAUGG RNA 2: GGGAAUGGAUCCACAUCUACGAAUUCGUACCAUAGAGGGAUUAUCCGCUCACCGAGAUCGGAAGAGCACACGU | 41 ± 6 |
| target 1 U8C,A16C (mixed) RNA 1: CACCCGUGCAAAAAUGCAGGGGUCUAAAACUGAGCGGAUAACCUCUCUAUGG RNA 2: GGGAAUGGAUCCACAUCUACGAAUUCGUACCAUAGCGAGGUUACCCGCUCACCGAGAUCGGAAGAGCACACGU | 77 ± 5 |
| target 1 insU 3' of 1,insC 3' of 1 (mixed) RNA 1: CACCCGUGCAAAAAUGCAGGGGUCUAAAACUGAGCGGAUAACCUCUCUAUGG RNA 2: GGGAAUGGAUCCACAUCUACGAAUUCGUACCAUAGAGAGGUUAUCCGCUCAUCCCGAGAUCGGAAGAGCACACGU | 11.6 ± 0.6 |
| target 1 del12,del13 (mixed) RNA 1: CACCCGUGCAAAAAUGCAGGGGUCUAAAACUGAGCGGAUAACCUCUCUAUGG RNA 2: GGGAAUGGAUCCACAUCUACGAAUUCGUACCAUAGAGAUUAUCCGCUCACCGAGAUCGGAAGAGCACACGU | 18.6 ± 1.8 |
| target 1 insU 3' of 1,insG 3' of 1 (mixed) RNA 1: CACCCGUGCAAAAAUGCAGGGGUCUAAAACUGAGCGGAUAACCUCUCUAUGG RNA 2: GGGAAUGGAUCCACAUCUACGAAUUCGUACCAUAGAGAGGUUAUCCGCUCAUGCCGAGAUCGGAAGAGCACACGU | 11.6 ± 1 |
| target 1 C4G,C22A (mixed) RNA 1: CACCCGUGCAAAAAUGCAGGGGUCUAAAACUGAGCGGAUAACCUCUCUAUGG RNA 2: GGGAAUGGAUCCACAUCUACGAAUUCGUAACAUAGAGAGGUUAUCCGGUCACCGAGAUCGGAAGAGCACACGU | 5.9 ± 0.4 |
| target 1 C2A,U8G (mixed) RNA 1: CACCCGUGCAAAAAUGCAGGGGUCUAAAACUGAGCGGAUAACCUCUCUAUGG RNA 2: GGGAAUGGAUCCACAUCUACGAAUUCGUACCAUAGAGAGGUUAGCCGCUAACCGAGAUCGGAAGAGCACACGU | 19.4 ± 1.3 |
